Experimental findings from patent US20230340151A1 (Pfizer, published 2023) are described below.

One experiment addresses T1, Human GUCY2C ECD-muIgG2a (human).
T1 construct: also called human GUCY2c ECD-mouse IgG2a Fc fusion protein; huGUCY2c-mIgG2a
Description: sandwich ELISA: CD3 epsilon-delta coated, GUCY2c ECD-mIgG2a Fc in solution.

The target in a further experiment is T2, Human CD3 epsilon-delta (human).
T2 construct: Single-chain epsilon-linker-delta with His6; also called huCD3
T2 chain: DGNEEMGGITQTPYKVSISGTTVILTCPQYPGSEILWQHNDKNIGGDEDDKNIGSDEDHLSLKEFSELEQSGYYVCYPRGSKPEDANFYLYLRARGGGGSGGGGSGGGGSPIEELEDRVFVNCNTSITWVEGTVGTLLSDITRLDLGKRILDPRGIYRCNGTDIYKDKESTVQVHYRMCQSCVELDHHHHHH
Description: direct ELISA, coated CD3 epsilon-delta.

The target in experiment [1] is T3, Purified human GUCY2c ECD (recombinant, construct not stated) (human, UniProt P25092 24-430).
T3 construct: also called recombinant human GUCY2c; recombinant GUCY2c protein
Nature of the experiment: direct ELISA, coated GUCY2c ECD.

Experiment [2] addresses Human GUCY2c on tumor cells (T84, HT55) (human, UniProt P25092 24-1073). Description: cell-based or functional assay.
Experiment [3] has as its target T4, Human GUCY2C full length (SEQ ID NO: 224), recombinant protein (human, UniProt P25092 24-430, limits assumed).
T4 construct: also called huGUCY2C; biotinylated human GUCY2c
Nature of the experiment: SPR, GUCY2c directly immobilized, 25 C.

T4 sequence (P25092 24-430 F281L limits assumed): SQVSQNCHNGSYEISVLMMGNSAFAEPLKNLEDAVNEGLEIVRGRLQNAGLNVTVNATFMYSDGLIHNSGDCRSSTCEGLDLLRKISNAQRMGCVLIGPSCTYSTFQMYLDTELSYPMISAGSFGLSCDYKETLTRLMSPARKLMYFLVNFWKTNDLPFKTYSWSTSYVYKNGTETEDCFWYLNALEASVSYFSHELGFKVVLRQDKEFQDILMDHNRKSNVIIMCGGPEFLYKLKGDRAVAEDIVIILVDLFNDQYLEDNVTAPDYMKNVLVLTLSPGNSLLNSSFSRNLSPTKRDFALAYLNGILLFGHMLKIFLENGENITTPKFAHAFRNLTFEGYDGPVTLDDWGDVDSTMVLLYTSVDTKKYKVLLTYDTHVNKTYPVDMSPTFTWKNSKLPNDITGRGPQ
T3 sequence (P25092 24-430 limits assumed): as the sequence (P25092 24-430 F281L limits assumed) above, with L258F counted along it
Human GUCY2c on tumor cells (T84, HT55), sequence (P25092 24-1073 limits assumed): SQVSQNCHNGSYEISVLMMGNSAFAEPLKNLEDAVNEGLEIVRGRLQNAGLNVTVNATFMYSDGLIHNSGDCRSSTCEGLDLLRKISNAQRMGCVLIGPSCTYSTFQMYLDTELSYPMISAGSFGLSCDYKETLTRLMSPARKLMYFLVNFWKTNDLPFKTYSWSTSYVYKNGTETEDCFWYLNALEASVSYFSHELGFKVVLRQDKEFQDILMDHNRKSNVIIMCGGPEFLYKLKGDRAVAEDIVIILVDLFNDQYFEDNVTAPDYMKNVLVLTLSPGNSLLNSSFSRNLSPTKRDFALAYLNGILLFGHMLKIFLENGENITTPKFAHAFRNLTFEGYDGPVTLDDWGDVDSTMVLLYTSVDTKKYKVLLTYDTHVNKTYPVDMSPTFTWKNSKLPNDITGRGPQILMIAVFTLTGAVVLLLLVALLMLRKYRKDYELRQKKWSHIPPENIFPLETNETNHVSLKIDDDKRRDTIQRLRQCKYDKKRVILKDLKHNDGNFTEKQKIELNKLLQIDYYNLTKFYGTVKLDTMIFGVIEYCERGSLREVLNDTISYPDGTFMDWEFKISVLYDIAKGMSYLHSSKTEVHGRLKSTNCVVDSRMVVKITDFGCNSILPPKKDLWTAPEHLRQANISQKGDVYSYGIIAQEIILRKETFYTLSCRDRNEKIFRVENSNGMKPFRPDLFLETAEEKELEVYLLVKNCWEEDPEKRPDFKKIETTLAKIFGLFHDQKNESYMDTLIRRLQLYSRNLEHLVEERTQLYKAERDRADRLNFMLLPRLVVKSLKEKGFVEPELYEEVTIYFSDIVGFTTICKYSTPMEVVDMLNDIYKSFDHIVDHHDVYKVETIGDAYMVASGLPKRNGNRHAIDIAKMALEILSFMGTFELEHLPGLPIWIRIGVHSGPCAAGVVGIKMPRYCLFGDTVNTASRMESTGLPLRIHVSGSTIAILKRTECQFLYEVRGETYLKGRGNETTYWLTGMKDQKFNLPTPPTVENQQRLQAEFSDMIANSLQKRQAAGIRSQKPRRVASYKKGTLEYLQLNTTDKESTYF
T1 sequence (chain, as listed by the source limits assumed): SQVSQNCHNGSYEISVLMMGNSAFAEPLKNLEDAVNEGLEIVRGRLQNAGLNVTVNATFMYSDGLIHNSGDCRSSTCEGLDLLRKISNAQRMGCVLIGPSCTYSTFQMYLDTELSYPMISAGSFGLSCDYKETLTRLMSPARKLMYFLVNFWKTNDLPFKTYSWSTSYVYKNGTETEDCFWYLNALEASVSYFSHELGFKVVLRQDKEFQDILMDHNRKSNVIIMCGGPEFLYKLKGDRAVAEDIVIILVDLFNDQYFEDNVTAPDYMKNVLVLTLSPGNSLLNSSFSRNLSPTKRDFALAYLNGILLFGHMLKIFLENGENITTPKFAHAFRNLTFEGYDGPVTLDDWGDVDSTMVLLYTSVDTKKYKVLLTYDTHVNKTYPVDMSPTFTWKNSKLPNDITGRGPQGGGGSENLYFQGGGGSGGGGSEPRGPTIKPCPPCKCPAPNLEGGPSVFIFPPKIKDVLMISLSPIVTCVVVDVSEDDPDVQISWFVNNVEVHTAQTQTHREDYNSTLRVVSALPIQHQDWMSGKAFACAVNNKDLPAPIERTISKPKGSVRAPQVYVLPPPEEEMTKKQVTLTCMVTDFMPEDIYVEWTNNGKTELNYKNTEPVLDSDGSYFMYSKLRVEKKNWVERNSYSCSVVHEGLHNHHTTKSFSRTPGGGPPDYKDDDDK

B1: GUCY2C-0104 (bispecific antibody)
chain 1: DIVMTQSPASLAVSLGQRATISCRASKGVTTSGYSYMHWYQQKPGQPPKLLIYLASNLESGVPARFSGSGSGTDFTLNIHPVEEEDAATYYCQHSREFPLTFGAGTKLELKGGGSGGGGEVQLVESGGGLVQPGGSLRLSCAASGFTFSDYYMTWVRQAPGKGLEWVAFIRNRARGYTSDHNPSVKGRFTISRDNAKNSLYLQMNSLRAEDTAVYYCARDRPSYYVLDYWGQGTTVTVSSGCPPCPAPEAAGAPSVFLFPPKPKDTLMISRTPEVTCVVVDVSHEDPEVKFNWYVDGVEVHNAKTKPREEQYNSTYRVVSVLTVLHQDWLNGKEYKCKVSNKALPAPIEKTISKAKGQPREPQVCTLPPSREEMTKNQVSLWCLVKGFYPSDIAVEWESNGQPENNYKTTPPVLDSDGSFFLYSKLTVDKSRWQQGNVFSCSVMHEALHNHYTQKSLSLSPG
chain 2: DIVMTQSPDSLAVSLGERATINCKSSQSLFNVRSRKNYLAWYQQKPGQPPKLLISWASTRESGVPDRFSGSGSGTDFTLTISSLQAEDVAVYYCKQSYDLFTFGSGTKLEIKGGGSGGGGEVQLQQSGAELVKPGASVKLSCTASGFNIKDTYIHWVKQRPEQGLEWIGRIDPANGNANYDPKFQGKATITADTSSNTAYLQLSSLTSEDTAVFYCSSLGTGTYWGQGTTLTVSSGCPPCPAPEAAGAPSVFLFPPKPKDTLMISRTPEVTCVVVDVSHEDPEVKFNWYVDGVEVHNAKTKPREEQYNSTYRVVSVLTVLHQDWLNGKEYKCKVSNKALPAPIEKTISKAKGQPREPQVYTLPPCREEMTKNQVSLSCAVKGFYPSDIAVEWESNGQPENNYKTTPPVLDSDGSFFLVSKLTVDKSRWQQGNVFSCSVMHEALHNHYTQKSLSLSPG
For B1, in the experiment with Human GUCY2C ECD-muIgG2a, the concentration giving a half-maximal response (EC50) came out at 2.48 nM. In the experiment with Human CD3 epsilon-delta, this molecule had an EC50 of 0.418 nM. In experiment [1], the EC50 is greater than 100 nM. The “T84 tumor cell EC50 (T cell cytotoxicity, E:T 10:1)” value in experiment [2] is 14.9 nM. Also, in experiment [3], the dissociation constant Kd is 26.1 nM, the off-rate constant (koff) is 0.00386 s⁻¹ and the kon was 148000 M⁻¹ s⁻¹.

B2: GUCY2C-0077 (bispecific antibody)
chain 1: DIVLTQSPASLAVSLGQRATISCRASESVDNFDISFMNWFQQKPGQPPKLLIYAASNQGSGVPARFSGSGSGTDFSLNIHPMEEDDTAMYFCQQSKEVPYTFGGGTKLEIKGGGSGGGGEVQLVESGGGLVQPGGSLRLSCAASGFTFSDYYMTWVRQAPGKGLEWVAFIRNRARGYTSDHNPSVKGRFTISRDNAKNSLYLQMNSLRAEDTAVYYCARDRPSYYVLDYWGQGTTVTVSSGCPPCPAPEAAGAPSVFLFPPKPKDTLMISRTPEVTCVVVDVSHEDPEVKFNWYVDGVEVHNAKTKPREEQYNSTYRVVSVLTVLHQDWLNGKEYKCKVSNKALPAPIEKTISKAKGQPREPQVCTLPPSREEMTKNQVSLWCLVKGFYPSDIAVEWESNGQPENNYKTTPPVLDSDGSFFLYSKLTVDKSRWQQGNVFSCSVMHEALHNHYTQKSLSLSPG
chain 2: DIVMTQSPDSLAVSLGERATINCKSSQSLFNVRSRKNYLAWYQQKPGQPPKLLISWASTRESGVPDRFSGSGSGTDFTLTISSLQAEDVAVYYCKQSYDLFTFGSGTKLEIKGGGSGGGGEVQLQQSGAELARPGASVKLSCKASGYTFTKYWMQWIKQRPGQGLEWIGAIYPGDGFTTYTQKFKGKATLTADKSSNTAYMQLSSLASEDSAVYYCARRNYGRTYGGDYWGQGTSVTVSSGCPPCPAPEAAGAPSVFLFPPKPKDTLMISRTPEVTCVVVDVSHEDPEVKFNWYVDGVEVHNAKTKPREEQYNSTYRVVSVLTVLHQDWLNGKEYKCKVSNKALPAPIEKTISKAKGQPREPQVYTLPPCREEMTKNQVSLSCAVKGFYPSDIAVEWESNGQPENNYKTTPPVLDSDGSFFLVSKLTVDKSRWQQGNVFSCSVMHEALHNHYTQKSLSLSPG
For B2, the EC50 with Human GUCY2C ECD-muIgG2a is 7.5 nM; with Human CD3 epsilon-delta, 0.887 nM; in experiment [1] it was 27.5 nM. The “T84 tumor cell EC50 (T cell cytotoxicity, E:T 10:1)” value in experiment [2] amounted to 28.7 nM. Also, the Kd in experiment [3] was 160 nM. Also, in experiment [3], the koff amounted to 0.0224 s⁻¹. Moreover, in experiment [3], the association rate constant (kon) was found to be 143000 M⁻¹ s⁻¹.
